US9512459B2 (priority 2011, dated 2016)

Substrate: OC[C@H]1OC(O)[C@H](O)[C@@H](O)[C@@H]1O
Assay: cells, lysate or membranes named
Conditions: other: 60 ml culture, crude enzyme, glucose 1-40 mM, pH 6.5, DCIP/PMS, 20.0 °C

B1: Aspergillus niger glucose dehydrogenase (FAD-GDH) Ang-n1, wild type, SEQ ID NO: 2 (20 N-terminal residues deleted, Ala21 substituted by Met) (Aspergillus niger … (protein)
chain: MDSPAHYDFVIVGGGTSGLVVANRLSELSDVTVAVIEAGESALNNFNVSNVMGYSTAFGTEVDWAYQTENQTYAGGLQQTIRAGKALGGTSTINGMSYTRAEDVQIDNWEVLGNDGWNWKNLFQYYKKSEGFQVPTKDQIAHGASYNASYHGLNGPLKVGWPNSMTNSSVFPVLEQTFEKLGVQYNPDSEGGKMVGFTVHPDTLDREMNVREDAARAYYWPYEARSNLKIISNTRANKVIWANTTQGEAVAVGIEVTNAYGTETIYADKEVILSAGALRSPAILELSGIGNPDVLNKHNIPVKVNITTVGENLQDQTNNALSWEGVDTLTGLATFSVLPSVNQLYGDNVTALASYVKSQLASYAKTVASASNGAVKEANLVEAFERQYDLIFNSQVPYTEVVFAPSGNSFAVEYWPLLPFSRGSVHIQSANASDYPAINPNYFMFDQDAEAQVTVAQYIRKALGTAPLNSLVGEEVSPGLDVLPASASSATWTKWVKENYRTNYHPVGTTSMLPREKGGVVSPELKVYGTKNVRVVDASVLPFQLCGHLTSTLYAVAERASDLIKESY
B1 was tested, and the Km was 3.6 mM.
